B1: Phytochrome B (Arabidopsis thaliana (Mouse-ear cress)), P14713 (parent)
chain: MVSGVGGSGGGRGGGRGGEEEPSSSHTPNNRRGGEQAQSSGTKSLRPRSNTESMSKAIQQYTVDARLHAVFEQSGESGKSFDYSQSLKTTTYGSSVPEQQITAYLSRIQRGGYIQPFGCMIAVDESSFRIIGYSENAREMLGIMPQSVPTLEKPEILAMGTDVRSLFTSSSSILLERAFVAREITLLNPVWIHSKNTGKPFYAILHRIDVGVVIDLEPARTEDPALSIAGAVQSQKLAVRAISQLQALPGGDIKLLCDTVVESVRDLTGYDRVMVYKFHEDEHGEVVAESKRDDLEPYIGLHYPATDIPQASRFLFKQNRVRMIVDCNATPVLVVQDDRLTQSMCLVGSTLRAPHGCHSQYMANMGSIASLAMAVIINGNEDDGSNVASGRSSMRLWGLVVCHHTSSRCIPFPLRYACEFLMQAFGLQLNMELQLALQMSEKRVLRTQTLLCDMLLRDSPAGIVTQSPSIMDLVKCDGAAFLYHGKYYPLGVAPSEVQIKDVVEWLLANHADSTGLSTDSLGDAGYPGAAALGDAVCGMAVAYITKRDFLFWFRSHTAKEIKWGGAKHHPEDKDDGQRMHPRSSFQAFLEVVKSRSQPWETAEMDAIHSLQLILRDSFKESEAAMNSKVVDGVVQPCRDMAGEQGIDELGAVAREMVRLIETATVPIFAVDAGGCINGWNAKIAELTGLSVEEAMGKSLVSDLIYKENEATVNKLLSRALRGDEEKNVEVKLKTFSPELQGKAVFVVVNACSSKDYLNNIVGVCFVGQDVTSQKIVMDKFINIQGDYKAIVHSPNPLIPPIFAADENTCCLEWNMAMEKLTGWSRSEVIGKMIVGEVFGSCCMLKGPDALTKFMIVLHNAIGGQDTDKFPFPFFDRNGKFVQALLTANKRVSLEGKVIGAFCFLQIPSPELQQALAVQRRQDTECFTKAKELAYICQVIKNPLSGMRFANSLLEATDLNEDQKQLLETSVSCEKQISRIVGDMDLESIEDGSFVLKREEFFLGSVINAIVSQAMFLLRDRGLQLIRDIPEEIKSIEVFGDQIRIQQLLAEFLLSIIRYAPSQEWVEIHLSQLSKQMADGFAAIRTEFRMACPGEGLPPELVRDMFHSSRWTSPEGLGLSVCRKILKLMNGEVQYIRESERSYFLIILELPVPRKRPLSTASGSGDMMLMMPY
partner: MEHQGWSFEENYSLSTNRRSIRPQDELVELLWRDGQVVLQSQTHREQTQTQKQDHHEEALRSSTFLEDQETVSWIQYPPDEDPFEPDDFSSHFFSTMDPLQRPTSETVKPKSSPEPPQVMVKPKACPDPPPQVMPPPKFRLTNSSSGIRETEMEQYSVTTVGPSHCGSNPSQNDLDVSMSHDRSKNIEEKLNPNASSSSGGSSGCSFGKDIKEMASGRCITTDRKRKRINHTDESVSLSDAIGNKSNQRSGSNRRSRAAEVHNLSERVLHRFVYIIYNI
B2: Phytochrome A (Arabidopsis thaliana (Mouse-ear cress)), P14712 (parent)
chain: MSGSRPTQSSEGSRRSRHSARIIAQTTVDAKLHADFEESGSSFDYSTSVRVTGPVVENQPPRSDKVTTTYLHHIQKGKLIQPFGCLLALDEKTFKVIAYSENASELLTMASHAVPSVGEHPVLGIGTDIRSLFTAPSASALQKALGFGDVSLLNPILVHCRTSAKPFYAIIHRVTGSIIIDFEPVKPYEVPMTAAGALQSYKLAAKAITRLQSLPSGSMERLCDTMVQEVFELTGYDRVMAYKFHEDDHGEVVSEVTKPGLEPYLGLHYPATDIPQAARFLFMKNKVRMIVDCNAKHARVLQDEKLSFDLTLCGSTLRAPHSCHLQYMANMDSIASLVMAVVVNEEDGEGDAPDATTQPQKRKRLWGLVVCHNTTPRFVPFPLRYACEFLAQVFAIHVNKEVELDNQMVEKNILRTQTLLCDMLMRDAPLGIVSQSPNIMDLVKCDGAALLYKDKIWKLGTTPSEFHLQEIASWLCEYHMDSTGLSTDSLHDAGFPRALSLGDSVCGMAAVRISSKDMIFWFRSHTAGEVRWGGAKHDPDDRDDARRMHPRSSFKAFLEVVKTRSLPWKDYEMDAIHSLQLILRNAFKDSETTDVNTKVIYSKLNDLKIDGIQELEAVTSEMVRLIETATVPILAVDSDGLVNGWNTKIAELTGLSVDEAIGKHFLTLVEDSSVEIVKRMLENALEGTEEQNVQFEIKTHLSRADAGPISLVVNACASRDLHENVVGVCFVAHDLTGQKTVMDKFTRIEGDYKAIIQNPNPLIPPIFGTDEFGWCTEWNPAMSKLTGLKREEVIDKMLLGEVFGTQKSCCRLKNQEAFVNLGIVLNNAVTSQDPEKVSFAFFTRGGKYVECLLCVSKKLDREGVVTGVFCFLQLASHELQQALHVQRLAERTAVKRLKALAYIKRQIRNPLSGIMFTRKMIEGTELGPEQRRILQTSALCQKQLSKILDDSDLESIIEGCLDLEMKEFTLNEVLTASTSQVMMKSNGKSVRITNETGEEVMSDTLYGDSIRLQQVLADFMLMAVNFTPSGGQLTVSASLRKDQLGRSVHLANLEIRLTHTGAGIPEFLLNQMFGTEEDVSEEGLSLMVSRKLVKLMNGDVQYLRQAGKSSFIITAELAAANK
partner: B1 partner
B3: Phytochrome B (Arabidopsis thaliana (Mouse-ear cress)), P14713 (parent)
chain: B1 chain
partner: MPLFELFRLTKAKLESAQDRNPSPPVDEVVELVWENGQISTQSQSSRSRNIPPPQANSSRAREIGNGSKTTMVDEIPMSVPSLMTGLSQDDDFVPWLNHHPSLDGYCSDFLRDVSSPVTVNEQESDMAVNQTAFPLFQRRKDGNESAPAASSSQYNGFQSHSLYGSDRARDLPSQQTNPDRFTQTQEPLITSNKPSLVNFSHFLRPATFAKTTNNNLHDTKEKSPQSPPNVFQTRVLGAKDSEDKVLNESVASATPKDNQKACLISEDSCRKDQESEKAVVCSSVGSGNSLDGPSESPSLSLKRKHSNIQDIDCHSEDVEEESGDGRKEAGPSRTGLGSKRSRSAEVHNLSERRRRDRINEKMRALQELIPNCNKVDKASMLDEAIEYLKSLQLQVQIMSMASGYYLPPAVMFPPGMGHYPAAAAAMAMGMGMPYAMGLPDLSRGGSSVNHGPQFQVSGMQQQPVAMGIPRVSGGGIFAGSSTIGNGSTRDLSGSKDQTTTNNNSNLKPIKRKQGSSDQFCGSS
B4: Phytochrome A (Arabidopsis thaliana (Mouse-ear cress)), P14712 (parent)
chain: B2 chain
partner: B3 partner

Variants of: B1
Settings: with PIF4, Q8W2F3-2
G767R was tested, and the “effect of a mutation on the interaction” value was “decreasing interaction”.

Variants of: B2
Settings: with PIF4, Q8W2F3-2
With A715V the “effect of a mutation on the interaction” value was “decreasing interaction”. With G787E the “effect of a mutation on the interaction” value was “decreasing interaction”.

Variants of: B3
Settings: with pif3_arath PIF3, O80536
With G767R the “effect of a mutation on the interaction” value was “decreasing interaction”.

Variants of: B4
Settings: with pif3_arath PIF3, O80536
A715V was tested, and the “effect of a mutation on the interaction” value was “decreasing interaction”. G750E was tested, and the “effect of a mutation on the interaction” value was “decreasing interaction”.
